Test results reported in patent US20250049970A1, “DLL3 TARGETING PEPTIDES AND CONSTRUCTS THEREOF” (MARIANA ONCOLOGY INC., priority 2023, published 2025).
Where “and” joins values, the source holds several entries; their conditions need not be identical. Equal values may be shown once. Each block holds one binder with its values, some of them ahead of it. *1 amine or outer side, *2 acyl side, *3 side chain or, on linkers, in order; H or OH if unused. Bridges are numbered along the chain shown (N, C = ends). [ ]: non-standard residue; d: D form. The star is where a group is joined. Ala(piperidin-4-yl) = O=C([C@H](CC1CCN([*:3])CC1)N[*:1])[*:2]; DOTA = O=C(O)CN1CCN(CC(=O)O)CCN(CC(=O)*)CCN(CC(=O)O)CC1; 2Nal = N[C@@H](Cc1ccc2ccccc2c1)C(=O)O; NMetBuAla = CN[C@@H](CC(C)(C)C)C(=O)O; Ile(3-Me) = CCC(C)(C)[C@H](N)C(=O)O; aIle = CC[C@@H](C)[C@H](N)C(=O)O; tBuAla = CC(C)(C)C[C@H](N)C(=O)O; Cha = N[C@@H](CC1CCCCC1)C(=O)O; Chg = N[C@H](C(=O)O)C1CCCCC1; αMeP = C[C@@]1(C(=O)O)CCCN1

What was measured:
[1] = biological target: T1, DLL3 on SHP-77 cells (human, UniProt Q9NYJ7 27-618); test: [177Lu]Lu-labelled peptide on SHP-77 cells, 1 h 37 C, gamma counter; A = %<=25
T1 construct: SHP-77 cells are human-derived, non-engineered SCLC cells
T1 sequence: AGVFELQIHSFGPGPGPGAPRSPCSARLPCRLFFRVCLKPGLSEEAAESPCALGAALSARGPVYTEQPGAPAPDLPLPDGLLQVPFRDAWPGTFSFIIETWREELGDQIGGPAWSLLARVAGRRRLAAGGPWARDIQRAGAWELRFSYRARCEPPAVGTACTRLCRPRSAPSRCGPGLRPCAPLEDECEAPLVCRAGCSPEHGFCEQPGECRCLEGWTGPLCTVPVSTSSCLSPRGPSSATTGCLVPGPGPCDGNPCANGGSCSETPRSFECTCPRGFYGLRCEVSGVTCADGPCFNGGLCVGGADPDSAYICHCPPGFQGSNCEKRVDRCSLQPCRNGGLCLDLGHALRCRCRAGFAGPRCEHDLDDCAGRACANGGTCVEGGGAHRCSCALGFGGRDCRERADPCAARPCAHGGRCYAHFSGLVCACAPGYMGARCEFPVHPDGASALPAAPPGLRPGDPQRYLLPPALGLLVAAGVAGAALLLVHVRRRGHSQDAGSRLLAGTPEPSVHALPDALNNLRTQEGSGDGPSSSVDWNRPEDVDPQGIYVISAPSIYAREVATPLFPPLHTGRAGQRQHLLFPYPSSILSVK
Experimental: (§1) Adherent cell studies: The cells were cultured in appropriate culture media (20 mL) in tissue culture treated T150 flasks at 37° C. and 5% C02. Adherent cells were detached (60-70% confluent) using 5 mL Versene at 37° C. for 3 minutes. After confirming the viability using countess and count of detached cells using Trypan blue, the cells were centrifuged at 4° C. for 5 minutes (1,000 rpm). The cell pellet obtained was washed once with PBS and resuspended in 1% PBSA to obtain the desired cell concentration (5-25 million cells/mL).
(§2) Total uptake: Cells were incubated with 300 μL (0.8 μCi) of the incubation buffer (containing radiolabeled peptide [¹⁷⁷Lu]Lu-test peptide) for 1 hour at 37° C. (Table 10). Post incubation, the cells were pelleted and washed 2 times using cold PBS+1% BSA. The supernatant and washes were combined and counted together as “unbound fraction” in a gamma counter. The cells were then resuspended in 300 μL of 1% PBS+1% BSA and counted in the gamma counter as “bound fraction”.

[2] = biological target: T2, DLL3 on CT26.DLL3 cells (Homo sapiens (Human), UniProt Q9NYJ7 27-618); test: [177Lu]Lu-labelled peptide on CT26.DLL3 cells, 1 h 37 C, gamma counter; A = %<=25
T2 construct: CT26.DLL3 are engineered cells to express DLL3
T2 sequence: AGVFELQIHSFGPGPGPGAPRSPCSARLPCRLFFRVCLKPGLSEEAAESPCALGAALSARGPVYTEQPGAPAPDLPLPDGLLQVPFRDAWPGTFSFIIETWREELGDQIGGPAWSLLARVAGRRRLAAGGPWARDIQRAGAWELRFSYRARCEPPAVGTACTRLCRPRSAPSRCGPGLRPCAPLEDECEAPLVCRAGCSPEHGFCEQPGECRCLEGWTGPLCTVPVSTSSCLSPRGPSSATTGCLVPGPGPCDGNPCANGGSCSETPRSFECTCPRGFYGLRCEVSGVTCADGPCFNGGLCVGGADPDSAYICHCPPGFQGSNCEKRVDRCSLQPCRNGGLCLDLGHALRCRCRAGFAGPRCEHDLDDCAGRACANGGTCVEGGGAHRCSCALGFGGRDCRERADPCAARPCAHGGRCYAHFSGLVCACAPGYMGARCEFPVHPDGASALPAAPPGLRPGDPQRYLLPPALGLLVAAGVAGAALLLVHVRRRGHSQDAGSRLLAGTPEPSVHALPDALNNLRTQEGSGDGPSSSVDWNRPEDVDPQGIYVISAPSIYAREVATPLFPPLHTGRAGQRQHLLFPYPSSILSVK
Experimental: as §1, §2

[3] = biological target: T1, DLL3 on SHP-77 cells; test: [177Lu]Lu-labelled peptide on SHP-77 cells, 1 h 37 C, gamma counter; B = 25<%<=50
[4] = biological target: DLL3 on CT26.DLL3 cells (Homo sapiens (Human)) (UniProt Q9NYJ7); test: [177Lu]Lu-labelled peptide on CT26.DLL3 cells, 1 h 37 C, gamma counter; B = 25<%<=50
[5] = biological target: DLL3 on CT26.DLL3 cells (Homo sapiens (Human)) (UniProt Q9NYJ7); test: [177Lu]Lu-labelled peptide on CT26.DLL3 cells, 1 h 37 C, gamma counter; A = %<=25
[6] = biological target: Recombinant human DLL3 aa27-215 protein (human) (UniProt Q9NYJ7); test: ELISA: anti-DOTA antibody coated on the plate captures the DOTA-containing peptide (titrated 100 nM to 1.69 pM); 2 ug/mL DLL3 aa27-215 (His-tagged) added; detected with anti-His-HRP, OD450; EC50 fitted in GraphPad
[7] = biological target: T1, DLL3 on SHP-77 cells; test: [177Lu]Lu-labelled peptide on SHP-77 cells, 1 h 37 C, gamma counter; C = %>50

B2: Cpd No. 314 (peptide)
peptide: Ac-WT[tBuAla]C[Ala(piperidin-4-yl)]N[2Nal]K(DOTA)DCWP-NH2
modifications: disulfide 4-10
SMILES: CC(=O)N[C@@H](Cc1c[nH]c2ccccc12)C(=O)N[C@H](C(=O)N[C@@H](CC(C)(C)C)C(=O)N[C@H]1CSSC[C@@H](C(=O)N[C@@H](Cc2c[nH]c3ccccc23)C(=O)N2CCC[C@H]2C(N)=O)NC(=O)[C@H](CC(=O)O)NC(=O)[C@H](CCCCNC(=O)CN2CCN(CC(=O)O)CCN(CC(=O)O)CCN(CC(=O)O)CC2)NC(=O)[C@H](Cc2ccc3ccccc3c2)NC(=O)[C@H](CC(N)=O)NC(=O)[C@H](CC2CCNCC2)NC1=O)[C@@H](C)O
% Binding [3]: > 25% and < 50% | % Binding [4]: > 25% and < 50%

Binder: Ac-WT[tBuAla]C[Ala(piperidin-4-yl)]N[2Nal]K(DOTA)DCWP-NH2 (bridge 4-10; not fully specified (bridges)) [Cpd No. 94]
% Binding [4]: > 25% and < 50% | EC50 [6]: 2.19 nM

Binder: Ac-WT[Ile(3-Me)]C[Ala(piperidin-4-yl)]N[2Nal]K(DOTA)DCWP-NH2 (disulfide 4-10) [Cpd No. 302]
% Binding [3]: > 25% and < 50% | % Binding [5]: < 25%

B3: Cpd No. 322 (peptide)
peptide: Ac-WT[aIle]CNN[2Nal]K(DOTA)DCWP-NH2
modifications: disulfide 4-10
SMILES: CC[C@@H](C)[C@H](NC(=O)[C@@H](NC(=O)[C@H](Cc1c[nH]c2ccccc12)NC(C)=O)[C@@H](C)O)C(=O)N[C@H]1CSSC[C@@H](C(=O)N[C@@H](Cc2c[nH]c3ccccc23)C(=O)N2CCC[C@H]2C(N)=O)NC(=O)[C@H](CC(=O)O)NC(=O)[C@H](CCCCNC(=O)CN2CCN(CC(=O)O)CCN(CC(=O)O)CCN(CC(=O)O)CC2)NC(=O)[C@H](Cc2ccc3ccccc3c2)NC(=O)[C@H](CC(N)=O)NC(=O)[C@H](CC(N)=O)NC1=O
% Binding [1]: ≤ 25% | % Binding [2]: ≤ 25%

Binder: Ac-WT[NMetBuAla]C[Ala(piperidin-4-yl)]N[2Nal]K(DOTA)DCW[αMeP]-NH2 (bridge 4-10; not fully specified (bridges)) [Cpd No. 236]
% Binding [7]: > 50% | EC50 [6]: 0.341 nM

Results, then the binder that gave them:

% Binding [1]: ≤ 25% | % Binding [2]: ≤ 25%
B1: Cpd No. 323 (peptide)
peptide: Ac-WT[Cha]CNN[2Nal]K(DOTA)DCWP-NH2
modifications: disulfide 4-10
SMILES: CC(=O)N[C@@H](Cc1c[nH]c2ccccc12)C(=O)N[C@H](C(=O)N[C@@H](CC1CCCCC1)C(=O)N[C@H]1CSSC[C@@H](C(=O)N[C@@H](Cc2c[nH]c3ccccc23)C(=O)N2CCC[C@H]2C(N)=O)NC(=O)[C@H](CC(=O)O)NC(=O)[C@H](CCCCNC(=O)CN2CCN(CC(=O)O)CCN(CC(=O)O)CCN(CC(=O)O)CC2)NC(=O)[C@H](Cc2ccc3ccccc3c2)NC(=O)[C@H](CC(N)=O)NC(=O)[C@H](CC(N)=O)NC1=O)[C@@H](C)O

% Binding [3]: > 25% and < 50% | % Binding [5]: < 25%
Binder: Ac-WT[Chg]C[Ala(piperidin-4-yl)]N[2Nal]K(DOTA)DCWP-NH2 (disulfide 4-10) [Cpd No. 324]
